In experiment [1] the target is 405C full-length gp160 Env on SHIV (HIV-1 clade C, isolate 405C). The experiment is described as follows: cell-based or functional assay.
In experiment [2] the target is 459C full-length gp160 Env on SHIV (HIV-1 clade C, isolate 459C). Kind of experiment: cell-based or functional assay.
In experiment [3] the target is 405C gp140 trimer (405C gp140-foldon, gp140Fd) (HIV-1 clade C, isolate 405C). Kind of experiment: SPR; IgG captured on protein A, trimer flowed over. (In general: Surface plasmon resonance follows binding to a sensor surface in real time, without labels.)
Experiment [4] deals with 405C gp120 monomer (HIV-1 clade C, isolate 405C). The experiment is described as follows: SPR; IgG captured on protein A, Env flowed over; 1:1 model.
In experiment [5] the target is 405C gp140 trimer (405C gp140-foldon, gp140Fd) (HIV-1 clade C, isolate 405C). The description is as above.
Experiment [6] concerns the target 459C gp120 monomer (HIV-1 clade C, isolate 459C). Described as above.
Experiment [7] has as its target 459C gp140 trimer (459C gp140-foldon, gp140Fd) (HIV-1 clade C, isolate 459C). The description is as above.
Experiment [8] has as its target 939C gp120 monomer (HIV-1 clade C, isolate 939C). Described as above.
Experiment [9] addresses 939C gp140 trimer (939C gp140-foldon, gp140Fd) (HIV-1 clade C, isolate 939C). The description is as above.
Experiment [10] deals with 405C gp140 trimer (405C gp140-foldon, gp140Fd) (HIV-1 clade C, isolate 405C). Kind of experiment: SPR (Example 8); IgG captured on protein A, trimer flowed over.
Experiment [11] has the same target. Kind of experiment: SPR; 17b IgG captured on protein A, trimer at 1000 nM with against without bound CD4.
Experiment [12] has as its target 459C gp140 trimer (459C gp140-foldon, gp140Fd) (HIV-1 clade C, isolate 459C). The experiment is described as above.
Experiment [13] addresses 939C gp140 trimer (939C gp140-foldon, gp140Fd) (HIV-1 clade C, isolate 939C). The experiment is described as above.
For experiment [14], the target named is 405C gp140 trimer (405C gp140-foldon, gp140Fd) (HIV-1 clade C, isolate 405C). Kind of experiment: SPR; 3,500 RU IgG captured on protein A, Env flowed over; 1:1 model.
Experiment [15] has as its target 459C gp140 trimer (459C gp140-foldon, gp140Fd) (HIV-1 clade C, isolate 459C). The description is as above.
For experiment [16], the target named is 939C gp140 trimer (939C gp140-foldon, gp140Fd) (HIV-1 clade C, isolate 939C). The description is as above.
Experiment [17] has as its target 405C gp140 trimer (405C gp140-foldon, gp140Fd) (HIV-1 clade C, isolate 405C). Kind of experiment: SPR; 4,500 RU IgG captured on protein A, Env flowed over.
Experiment [18] has as its target 939C gp140 trimer (939C gp140-foldon, gp140Fd) (HIV-1 clade C, isolate 939C). The description is as above.
Experiment [19] has as its target 405C gp120 monomer (HIV-1 clade C, isolate 405C). Kind of experiment: SPR; IgG captured on protein A, Env flowed over; 1:1 model (monomer rates are rough estimates).
The target of experiment [20] is 459C gp120 monomer (HIV-1 clade C, isolate 459C). Described as above.
Experiment [21] addresses 405C gp140 trimer (405C gp140-foldon, gp140Fd) (HIV-1 clade C, isolate 405C). The experiment is described as follows: SPR; CD4 coupled to CM5 chip, Env flowed over; 1:1 model.
In experiment [22] the target is 459C gp120 monomer (HIV-1 clade C, isolate 459C). The description is as above.
The target in experiment [23] is 459C gp140 trimer (459C gp140-foldon, gp140Fd) (HIV-1 clade C, isolate 459C). Described as above.
Experiment [24] has as its target 939C gp120 monomer (HIV-1 clade C, isolate 939C). Described as above.
Experiment [25] concerns the target 939C gp140 trimer (939C gp140-foldon, gp140Fd) (HIV-1 clade C, isolate 939C). The experiment is described as above.
The target in experiment [26] is 405C gp140 trimer (405C gp140-foldon, gp140Fd) (HIV-1 clade C, isolate 405C). Kind of experiment: SPR; CD4 coupled to CM5 chip, Env flowed over; 1:1 model; 405C gp140 trimer as analyte.
Experiment [27] concerns the target 405C gp120 monomer (HIV-1 clade C, isolate 405C). The experiment is described as follows: SPR; CD4 coupled to CM5 chip, Env flowed over; 1:1 model; 405C gp120 monomer as analyte.

For the substance 2F5 IgG (antibody), the IC50 Titers (TZM.bl cells, ug/ml) in [1] and in experiment [2] was greater than 50 µg/mL each time.

On to 2G12 IgG (antibody), for which the IC50 Titers (TZM.bl cells, ug/ml) in experiment [1] and in experiment [2] was greater than 50 µg/mL each time.

Regarding 3BNC117 IgG (antibody), the IC50 Titers (TZM.bl cells, ug/ml) is 4.94 µg/mL in [1] and 5.97 µg/mL in experiment [2]. The substance further gave a fold lower magnitude of binding than 459C and 939C trimers in [3] of 5 fold. The Kd in experiment [4] stood at 85.8 nM; in experiment [5], 78.3 nM; in experiment [6], 95.1 nM; in experiment [7] it was 1.24 nM; in experiment [8], 172 nM; in experiment [9], 27.1 nM. Besides, the koff in experiment [4] worked out at 0.00042 s⁻¹; in experiment [5], 0.000322 s⁻¹; in experiment [6] it was 0.0005 s⁻¹; in [7], 1.04e-05 s⁻¹; in experiment [8] it was 0.000961 s⁻¹; in [9], 0.000224 s⁻¹. Also, the kon in [4] came to 4900 M⁻¹ s⁻¹; in [5], 4110 M⁻¹ s⁻¹; in [6], 6130 M⁻¹ s⁻¹; in experiment [7], 8500 M⁻¹ s⁻¹; in experiment [8], 6450 M⁻¹ s⁻¹; in experiment [9], 8330 M⁻¹ s⁻¹. In [10], this substance gave a fold lower magnitude of binding than Env 459C and 939C trimers of 5 fold.

Consider 4E10 IgG (antibody), for which the results for the IC50 Titers (TZM.bl cells, ug/ml) in experiment [1] and in [2] were 18.2 µg/mL and greater than 50 µg/mL, respectively.

As to 17b IgG (antibody), the fold increase in magnitude of binding when the trimer is bound to CD4 in [11], in experiment [12] and in experiment [13] was 4 fold each time.

For PG9 IgG (antibody), the IC50 Titers (TZM.bl cells, ug/ml) was 17.4 µg/mL in experiment [1] and greater than 50 µg/mL in [2]. Besides, the Kd turned out to be 335 nM in experiment [14], 448 nM in [15] and 157 nM in experiment [16]. Besides, the dissociation rate constant (koff) in [14] is 0.000662 s⁻¹; in experiment [15] it was 0.0032 s⁻¹; in experiment [16], 0.00126 s⁻¹. The kon in experiment [14] was determined as 1970 M⁻¹ s⁻¹; in experiment [15], 7150 M⁻¹ s⁻¹; in [16], 8010 M⁻¹ s⁻¹.

Turning to PG16 IgG (antibody), the IC50 Titers (TZM.bl cells, ug/ml) in [1] turned out to be 2.05 µg/mL. The same substance returned an IC50 Titers (TZM.bl cells, ug/ml) in experiment [2] of 6.7 µg/mL. In experiment [17], this substance showed a dissociation constant (Kd) of 1450 nM and a koff of 0.00151 s⁻¹. In experiment [18], this substance registered a Kd of 1260 nM, a koff of 0.00286 s⁻¹ and an on-rate (kon) of 2410 M⁻¹ s⁻¹.

In the case of PGT121 IgG (antibody), the Kd is 10.6 nM in experiment [5]; 5.56 nM in [7]; 25.7 nM in experiment [9]; 64.2 nM in experiment [19]; 123 nM in experiment [20]. For the same substance, the off-rate (koff) in experiment [5] is 0.000104 s⁻¹; in experiment [7] it was 8.73e-05 s⁻¹; in experiment [9], 0.00043 s⁻¹; in [19] it was 0.000492 s⁻¹; in experiment [20], 0.000824 s⁻¹. The on-rate constant (kon) in experiment [5] is 9780 M⁻¹ s⁻¹; in experiment [7], 15700 M⁻¹ s⁻¹; in experiment [9], 16700 M⁻¹ s⁻¹; in experiment [19], 7670 M⁻¹ s⁻¹; in experiment [20] it was 6720 M⁻¹ s⁻¹.

Regarding PGT126 IgG (antibody), the Kd is 9.83 nM in experiment [5]; 8.3 nM in experiment [7]; 6.63 nM in experiment [9]; 38.3 nM in experiment [19]; 41.3 nM in experiment [20]. Further, the off-rate constant (koff) was 0.000282 s⁻¹ in [5]; 0.000243 s⁻¹ in experiment [7]; 0.000232 s⁻¹ in experiment [9]; 0.0012 s⁻¹ in experiment [19]; 0.000592 s⁻¹ in experiment [20]. Besides, the on-rate constant (kon) is 28700 M⁻¹ s⁻¹ in [5]; 29500 M⁻¹ s⁻¹ in experiment [7]; 35000 M⁻¹ s⁻¹ in [9]; 31400 M⁻¹ s⁻¹ in experiment [19]; 14800 M⁻¹ s⁻¹ in experiment [20].

On to PGT128 IgG (antibody), for which the IC50 Titers (TZM.bl cells, ug/ml) is 45.9 µg/mL in [1] and 0.65 µg/mL in experiment [2].

As to “Soluble two-domain CD4 (from UniProt P01730 26-208) (receptor)”, the koff in [21] came out at 0.000196 s⁻¹; in experiment [22], 0.00049 s⁻¹; in experiment [23], 9.89e-05 s⁻¹; in experiment [24], 0.00031 s⁻¹; in experiment [25] it was 0.000206 s⁻¹; in experiment [27], 0.000327 s⁻¹. Moreover, the kon came to 15400 M⁻¹ s⁻¹ in experiment [21]; 18200 M⁻¹ s⁻¹ in [22]; 23700 M⁻¹ s⁻¹ in experiment [23]; 19500 M⁻¹ s⁻¹ in experiment [24]; 16500 M⁻¹ s⁻¹ in experiment [25]; 5560 M⁻¹ s⁻¹ in experiment [27]. Moreover, the Kd in experiment [22] was 26.9 nM; in experiment [23], 4.17 nM; in experiment [24], 15.9 nM; in [25], 12.5 nM; in experiment [26], 12.3 nM.

Turning to VRC01 IgG (antibody), the IC50 Titers (TZM.bl cells, ug/ml) in experiment [1] came out at 13.3 µg/mL; in [2], 11.9 µg/mL. The same substance returned a fold lower magnitude of binding than 459C and 939C trimers in experiment [3] of 5 fold. Also, the dissociation constant Kd was 35.3 nM in [4]; 7.42 nM in experiment [5]; 328 nM in experiment [6]; 7.5 nM in [7]; 57.3 nM in [8]; 3.52 nM in experiment [9]. For the same substance, the off-rate constant (koff) in [4] was 0.000278 s⁻¹; in [5], 4.52e-05 s⁻¹; in experiment [6] it was 0.00109 s⁻¹; in experiment [7] it was 4.75e-05 s⁻¹; in [8] it was 0.000249 s⁻¹; in experiment [9] it was 1.55e-05 s⁻¹. Further, the association rate constant (kon) is 7870 M⁻¹ s⁻¹ in [4]; 6090 M⁻¹ s⁻¹ in [5]; 3320 M⁻¹ s⁻¹ in [6]; 6990 M⁻¹ s⁻¹ in experiment [7]; 4350 M⁻¹ s⁻¹ in experiment [8]; 4400 M⁻¹ s⁻¹ in experiment [9]. Besides, the fold lower magnitude of binding than Env 459C and 939C trimers in [10] was 5 fold.

As for b12 IgG (antibody), the IC50 Titers (TZM.bl cells, ug/ml) in experiment [1] and in experiment [2] was greater than 50 µg/mL throughout.

As for “sCD4 (soluble CD4) (from UniProt P01730 26-208) (receptor)”, the results for the IC50 Titers (TZM.bl cells, ug/ml) in experiment [1] and in experiment [2] were greater than 50 µg/mL and 48.7 µg/mL, respectively.

In general, Kd refers to a measure of binding affinity in units of concentration. As usually defined, the koff is the rate constant with which the complex falls apart. The kon is the rate constant with which the complex forms.

These data come from patent US20160243215A1.
